From article PMC6093232, “PROMIS, global analysis of PROtein–metabolite interactions using size separation in Arabidopsis thaliana” (The Journal of Biological Chemistry, 2018)

Target: His6-GAPC1/2 (cytosolic glyceraldehyde-3-phosphate dehydrogenase, GAPC1 or GAPC2) (A. thaliana, UniProt P25858 1-338)
Assay: nano-DSF (thermal shift, Prometheus NT.48); plant GAPCs 0.2–0.25 mg/ml with 25 μM (GAPC1/2, GAPCP1) or 50 μM (GAPCP2) dipeptide in 1× PBS; thermal ramp 2 °C/min, 20–90 °C; Tm from F350/F330
Settings: both partners purified

His6-GAPC1/2 (cytosolic glyceraldehyde-3-phosphate dehydrogenase, GAPC1 or GAPC2), sequence (P25858 whole entry): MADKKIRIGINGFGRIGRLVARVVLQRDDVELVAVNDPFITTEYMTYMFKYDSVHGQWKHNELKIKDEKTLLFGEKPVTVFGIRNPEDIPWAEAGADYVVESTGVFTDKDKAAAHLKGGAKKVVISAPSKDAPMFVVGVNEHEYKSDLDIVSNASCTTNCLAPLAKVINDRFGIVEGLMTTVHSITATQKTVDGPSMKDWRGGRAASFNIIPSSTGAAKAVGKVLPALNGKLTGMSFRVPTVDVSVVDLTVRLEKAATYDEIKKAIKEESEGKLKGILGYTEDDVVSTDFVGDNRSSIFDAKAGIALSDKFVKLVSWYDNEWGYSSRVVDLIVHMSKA

B1: dipeptide Tyr–Asp (peptide)
peptide: YD
notes: free dipeptide Tyr–Asp, printed in three-letter code; source: synthetic peptide; bought: Eurogentec
decrease of Tm with 25 μM Tyr–Asp: ~1 °C
